Where no end group is shown, it is not given here.

This test addresses bovine insulin (bovine, UniProt P01317 85-105; P01317 25-54). As to the kind of experiment: ITC.

bovine insulin, sequence (P01317 85-105, chain 1 of 2): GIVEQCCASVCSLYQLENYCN
bovine insulin, sequence (P01317 25-54, chain 2 of 2): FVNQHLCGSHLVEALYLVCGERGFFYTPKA

B1: B2T_FF (N-DIFF-RYNGKVWWR-C), de novo designed 13-mer beta-hairpin peptide (designed binder)
peptide: Ac-DIFFRYNGKVWWR
Take B1: the binding result is recorded as “binds”.

B2: B2T_TT (N-DITTRYNGKVWWR-C), de novo designed 13-mer beta-hairpin peptide (designed binder)
peptide: Ac-DITTRYNGKVWWR
As for B2, the “stoichiometry N” value came out at 4 peptides per insulin.

B3: B2T_KV (N-KVYY-RYNGKVWWR-C), de novo designed 13-mer beta-hairpin peptide (designed binder)
peptide: Ac-KVYYRYNGKVWWR
Regarding B3, the binding result was “binds”.
